US20140120095A1 (Boehringer Ingelheim, published 2014)
Substitutions are numbered along the chain they refer to.

B1: VEGFBII111D05 (VHH)
VHH: EVQLVESGGGLVQTGGSLRLSCEASGRTFSSYSMGWFRQAPGKEREFVVAISKGGYKYDSVSLEGRFTISRDNAKNTVYLQINSLRPEDTAVYYCASSRAYGSSRLRLADTYEYWGQGTLVTVSS
B2: VEGFBII111G06 (VHH)
VHH: B1 VHH with T14P, E23A, I82M
B3: DLLBII112A04 (VHH)
VHH: EVQLVESGGGLVQAGGSLRLSCAAFGRTPYGMGWFRQAPGKEREFVAAITSDGSTNYADSVKGRFTISRDNAKNAVSLQMNSLKPEDTAVYYCTAPYYSDFEGTTTEYDYWGQGTQVTVSS
B4: DLLBII101H05 (VHH)
VHH: EVQLVESGGGSAQAGGSLRLSCAASGRTSSTYAMGWFRQAPGKEHEFVSAIGRGTGATSYGDSVKGRFTISRDNAKNTVYLQMNSLQLEDTGDYYCVAGRGFYHDYSSYEYRGQGTQVTVSS
B5: DLLBII112A03 (VHH)
VHH: EVQLVESGGGLVQPGGSLRLSCAASGIRFSINGMGWYRQAPGKQREAVATITRGGIRDYTDSVKGRFTISRDIARNTVYLQMNNLKPEDSAVYYCNIDIYWGRGTQVTVSS
B6: DLLBII47D01 (VHH)
VHH: EVQLVESGGGLVQPGGSLRLSCAASGFTFDDYAIGWFRQAPGKEREGVSCISSSGSTYYADSVKGRFTISRDNAKNTVYLQMNSLKPEDTAVYYCAIAGASSWCFPPGYWGQGTQVTVSS
B7: DLLBII80E08 (VHH)
VHH: EVQLVESGGGLVQAGGSLTLSCAASGGTFTTYAMGWFRQAPGKEREFVAAVSRFGVSWDYADSVKGRFTISRDNTANTLKLRMNSLKADDTAVYYCAAGGRSFLPFVPAYWGQGTQVTVSS
B8: DLLBII104B05 (VHH)
VHH: EVQLVESGGGSVQAGGSLRLSCAASGSISRIDVMAWYRQAPGKERELVASISSGGSTNYADSVKGRFTISREYFKNMMYLQMNSLKFEDTAVYYCNADSRRGGVGNFFRSWGQGTQVTVSS
B9: DLLBII104A03 (VHH)
VHH: EVQLVESGGGLVQAGGSLRLSCAASGDIPRIAAMGWYRQAPGKQRELVATVSNAATTRYADSAKGRFTISRDNAKTVSLQMDNLKPEDTGVYYCYSLATTVTPSWVNYWGQGTQVTVSS
B10: DLLBII107C03 (VHH)
VHH: EVQLVESGGGLVQPGGSLRLSCEVSGSIGSVSDMRWYRQAPGLQYELVARITSGSITDYSDSVKGRFTISRDNAKNTVYLQMNSLKPEDTAVYYCNADVQHSAWLKPLTYWGQGTQVTVSS
B11: DLLBII102F08 (VHH)
VHH: EVQLVESGGGLVQTGDSLRLSCAASGSTFSNYRMGWFRQGPGKEREFVAAIGRNGQNTYYTDSVKGRFTVTRDNAKNMVYLQMNSLKPEDSAVYTCAASLRGWDTTRIDYEYWGQGTQVTVSS
B12: DLLBII102G04 (VHH)
VHH: EVQLMESGGGLVQPGGSLRLSCAASGFTFSSYAMSWVRQAPGKGLEWVSRITSGGRTTYRDSVKGRFTISRDNSKNTLYLQMNSLKPEDTALYYCAKARGDIDVYTLSDSRGQGTQVTVSS
B13: DLLBII101H09 (VHH)
VHH: EVQLVESGGGLVQPGGSLRLSCAASGFTLGYYTIVWFRQAPGKERKGVSCISSRDGSRYYADSVKGRFTISRDNAKNTVYLRMNSLKPEDTAVYYCAAGPDCSSYDYWGQGTQVTVSS
B14: DLLBII112E07 (VHH)
VHH: EVQLVESGGGLVQAGGSLRLSCAASGRTVRSYATGWFRQAPGKEREFVAALRWSIGSIASVYYDDSVKGRFTISGDNAENTVYLQMNALKPEDTAIYYCASTTRGRYSALSASAYDYWGQGTQVTVSS
B15: DLLBII129H04 (VHH)
VHH: EVQLVESRGGLVQAGGSLRLSCAASGRTFSSYAMAWFRQAPGKEREYVAAIRWSGGTAYYADSVQGRFTISRDNAKNTVYLQMNSLKPEDTAVYYCANRAPDTRLEPYLYDHWGQGTQVTVSS
B16: DLLBII130B04 (VHH)
VHH: B15 VHH with R8G, E106R
B17: DLLBII130E03 (VHH)
VHH: B15 VHH with R8G, F37Y, L109E
B18: DLLBII129H02 (VHH)
VHH: B15 VHH with R8G, F37Y, E106R, L109E, H112Y
B19: DLLBII129B02 (VHH)
VHH: B15 VHH with R8G, R19S, F37Y, L109E
B20: DLLBII129E03 (VHH)
VHH: B15 VHH with R8G, E44D, E106A, H112Y
B21: DLLBII129H05 (VHH)
VHH: B15 VHH with R8G, F37Y, Q39L, E106G, H112Y
B22: DLLBII130D06 (VHH)
VHH: B15 VHH with R8G, A23S, F37Y, G56E
B23: DLLBII129E07 (VHH)
VHH: B15 VHH with R8G, A23S, F37Y, A61P, E106A, L109E
B24: DLLBII129G09 (VHH)
VHH: B15 VHH with R8G, F37Y, G56E
B25: DLLBII130A05 (VHH)
VHH: B15 VHH with R8G, F37Y, E106G
B26: DLLBII130B02 (VHH)
VHH: B15 VHH with R8G, N84Y, E106A
B27: DLLBII129D01 (VHH)
VHH: B15 VHH with R8G, G66S, S71T
B28: DLLBII129G10 (VHH)
VHH: B15 VHH with R8G, F37Y, G66S, L109E

Target: T1, recombinant human VEGF165 (human, UniProt P15692-4 27-191, biotinylated in the competition assays)
T1 construct: Bought protein; also called hVEGF165; rhVEGF165
T1 sequence (P15692 other isoform, or with tags, fused parts or gaps): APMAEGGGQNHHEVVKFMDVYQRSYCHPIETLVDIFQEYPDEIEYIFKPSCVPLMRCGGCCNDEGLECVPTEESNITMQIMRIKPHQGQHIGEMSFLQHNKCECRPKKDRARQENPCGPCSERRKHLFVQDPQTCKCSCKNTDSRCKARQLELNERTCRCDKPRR
Assay: AlphaScreen, hVEGF165/hVEGFR2-Fc competition
Design: % inhibition: concentration or dose not given beside the values

Binder	% inhibition	IC50
B1	100%	0.209 nM
B2	100%	0.366 nM

Target: T2, human DLL4 overexpressed on cells (human, UniProt Q9NR61 27-685)
T2 construct: full length human DLL4 on CHO or HEK293 cells; also called CHO-hDLL4; CHO-hDII4
Assay: FMAT, labelled hNotch1-Fc on CHO-hDLL4, periplasmic extract
Excerpt: (§1) All calculations are based on the FL1_total signal which comprises the average of the fluorescence per well times the number of counts per well.

Binder	% inh
B3	75%
B4	85%
B5	72%
B6	87%
B7	71%
B8	86%
B9	86%
B10	75%
B11	85%
B12	86%
B13	87%
B14	80%

Target: T3, mouse DLL4 overexpressed on cells (mouse, UniProt Q9JI71 27-686)
T3 construct: whole, on cells; also called CHO-mDLL4; CHO-mDII4
T3 sequence (Q9JI71 27-686): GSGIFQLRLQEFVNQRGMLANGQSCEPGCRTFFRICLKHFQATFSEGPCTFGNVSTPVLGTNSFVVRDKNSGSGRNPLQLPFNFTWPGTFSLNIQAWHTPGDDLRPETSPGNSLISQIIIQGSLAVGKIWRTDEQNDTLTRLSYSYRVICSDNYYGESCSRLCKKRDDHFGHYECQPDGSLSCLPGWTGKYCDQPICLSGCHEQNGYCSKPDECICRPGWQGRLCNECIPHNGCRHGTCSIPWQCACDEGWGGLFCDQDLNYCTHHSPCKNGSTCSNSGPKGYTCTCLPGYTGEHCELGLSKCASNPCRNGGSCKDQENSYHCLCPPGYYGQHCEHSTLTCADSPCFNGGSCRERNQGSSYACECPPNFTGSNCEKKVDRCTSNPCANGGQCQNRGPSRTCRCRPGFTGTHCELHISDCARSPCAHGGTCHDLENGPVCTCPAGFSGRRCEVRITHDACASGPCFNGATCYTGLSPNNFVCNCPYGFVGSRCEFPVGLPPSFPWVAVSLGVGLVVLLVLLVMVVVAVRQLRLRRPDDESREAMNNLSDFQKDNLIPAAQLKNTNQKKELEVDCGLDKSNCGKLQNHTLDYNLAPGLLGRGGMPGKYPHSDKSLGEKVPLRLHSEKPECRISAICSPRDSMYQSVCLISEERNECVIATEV
Assay: FMAT, labelled hNotch1-Fc on CHO-mDLL4, periplasmic extract
Excerpt: as §1

Binder	% inh
B3	90%
B4	83%
B5	97%
B7	82%
B8	78%
B9	83%
B10	80%
B11	75%
B12	82%
B13	75%
B14	85%

Target: T4, recombinant human DLL4 (C-terminally His-tagged extracellular domain, R&D Systems) (human, UniProt Q9NR61 25-522, biotinylated in the competition ELISA)
T4 construct: also called rhDLL4; hDLL4
Assay: ProteOn off-rate screen, periplasmic extract, coated human DLL4
Method: (§2) In a first cycle, amino acid substitutions are introduced randomly in both framework (FW) and complementary determining regions (CDR) using the error-prone PCR method. […] After a polish step, PCR products are inserted via unique restriction sites into a vector designed to facilitate phage display of the VHH library. Consecutive rounds of in-solution selections are performed using decreasing concentrations of biotinylated recombinant human DLL4 (biot-rhDLL4) and trypsin elutions. Affinity-driven selections in a third round using cold rhDLL4 (at least 100× excess over biot-rhDLL4) are also performed. No selections on murine DLL4 are included as (conservation of) cross-reactivity is assessed at the screening level. Individual mutants are produced as recombinant protein using an expression vector derived from pUC119, which contains the LacZ promoter, a resistance gene for ampicillin, a multiple cloning site and an ompA leader sequence (pAX50). E. coliTG1 cells are transformed with the expression vector library and plated on agar plates (LB+Amp+2% glucose). Single colonies are picked from the agar plates and grown in 1 mL 96-deep-well plates. VHH expression is induced by adding IPTG (1 mM). Periplasmic extracts (in a volume of ˜80 uL) are prepared according to standard methods and screened for binding to recombinant human and mouse DII4 in a ProteOn (BioRad, Hercules, Calif., USA) off-rate assay. In brief, a GLC ProteOn Sensor chip is coated with recombinant human DII4 on the “ligand channels” L2 and L4 (with L1/L3 as reference channel), while “ligand channels” […] is coated with mouse DII4. Periplasmic extract of affinity-matured clones is diluted 1/10 and injected across the “analyte channels” A1-A6. An average off-rate is calculated of the wild type clones present in the plate and served as a reference to calculate off-rate improvements.

Binder	fold (off-rate vs DLLBII101G08)	koff
B15	33 fold	6.8e-05 s⁻¹
B16	22 fold	8.3e-05 s⁻¹
B17	24 fold	7.5e-05 s⁻¹
B18	23 fold	9.9e-05 s⁻¹
B19	30 fold	7.6e-05 s⁻¹
B20	20 fold	0.00011 s⁻¹
B21	24 fold	9.4e-05 s⁻¹
B22	26 fold	6.9e-05 s⁻¹
B23	21 fold	0.00011 s⁻¹
B24	26 fold	8.8e-05 s⁻¹
B25	24 fold	7.5e-05 s⁻¹
B26	23 fold	7.8e-05 s⁻¹
B27	26 fold	8.5e-05 s⁻¹
B28	31 fold	7.3e-05 s⁻¹

Target: T5, recombinant mouse DLL4 (C-terminally His-tagged extracellular domain, R&D Systems) (mouse, UniProt Q9JI71 27-532)
T5 construct: extracellular domain; also called rmDLL4; mDLL4
T5 sequence (Q9JI71 27-532): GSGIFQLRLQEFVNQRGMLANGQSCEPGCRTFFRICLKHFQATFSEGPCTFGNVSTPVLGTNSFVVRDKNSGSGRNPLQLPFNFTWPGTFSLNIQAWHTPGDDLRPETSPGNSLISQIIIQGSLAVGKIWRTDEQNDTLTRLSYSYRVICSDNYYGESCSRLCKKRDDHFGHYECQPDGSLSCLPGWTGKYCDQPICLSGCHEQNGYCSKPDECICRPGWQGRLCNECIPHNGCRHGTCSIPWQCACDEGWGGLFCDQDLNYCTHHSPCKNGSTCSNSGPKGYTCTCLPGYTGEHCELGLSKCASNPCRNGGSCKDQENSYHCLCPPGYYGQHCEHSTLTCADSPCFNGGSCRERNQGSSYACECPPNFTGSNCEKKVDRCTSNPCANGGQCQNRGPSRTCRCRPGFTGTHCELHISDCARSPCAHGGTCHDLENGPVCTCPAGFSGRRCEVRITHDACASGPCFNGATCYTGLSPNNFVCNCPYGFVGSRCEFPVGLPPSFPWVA
Assay: ProteOn off-rate screen, periplasmic extract, coated mouse DLL4
Method: as §2

Binder	fold (off-rate vs DLLBII101G08)	koff
B15	27 fold	0.00025 s⁻¹
B16	17 fold	0.00029 s⁻¹
B17	18 fold	0.00027 s⁻¹
B18	19 fold	0.00034 s⁻¹
B19	26 fold	0.00026 s⁻¹
B20	18 fold	0.00036 s⁻¹
B21	19 fold	0.00035 s⁻¹
B22	16 fold	0.00031 s⁻¹
B23	24 fold	0.00028 s⁻¹
B24	20 fold	0.00034 s⁻¹
B25	17 fold	0.0003 s⁻¹
B26	17 fold	0.00029 s⁻¹
B27	26 fold	0.00026 s⁻¹
B28	26 fold	0.00026 s⁻¹
